Data published in US20210095021A1 (MacroGenics, published 2021).

What was measured:
[1] = target: HIV gp140 (CM244, subtype AE, R5-tropic) expressed by HEK 293 D371 cells (HIV (CM244, subtype AE)); test: cell-based or functional assay
[2] = target: HIV gp160 (HxB2) expressed by tetracycline-induced Jurkat 522 FY cells (HIV (HxB2), UniProt P04578 33-856); test: cell-based or functional assay

Binder	EC50 (ng/mL) of CD8-mediated cytotoxicity, pan T cells, 24 h [1] [ng/mL]	EC50 (ng/mL) of CD8-mediated cytotoxicity, pan T cells, 24 h [2] [ng/mL]
anti-CD3 × anti-HIV env bispecific diabody (anti-HIV env antibody 7B2 and humanized anti-CD3 Antibody 2 binding domains) (bispecific antibody) chain 1: DIVMTQSPDSLAVSPGERATIHCKSSQTLLYSSNNRHSIAWYQQRPGQPPKLLLYWASMRLSGVPDRFSGSGSGTDFTLTINNLQAEDVAIYYCHQYSSHPPTFGHGTRVEIKGGGSGGGGEVQLVESGGGLVQPGGSLRLSCAASGFTFSTYAMNWVRQAPGKGLEWVGRIRSKYNNYATYYADSVKGRFTISRDDSKNSLYLQMNSLKTEDTAVYYCVRHGNFGNSYVSWFAYWGQGTLVTVSSGGCGGGEVAALEKEVAALEKEVAALEKEVAALEK chain 2: QAVVTQEPSLTVSPGGTVTLTCRSSTGAVTTSNYANWVQQKPGQAPRGLIGGTNKRAPWTPARFSGSLLGGKAALTITGAQAEDEADYYCALWYSNLWVFGGGTKLTVLGGGGSGGGGQVQLVQSGGGVFKPGGSLRLSCEASGFTFTEYYMTWVRQAPGKGLEWLAYISKNGEYSKYSPSSNGRFTISRDNAKNSVFLQLDRLSADDTAVYYCARADGLTYFSELLQYIFDLWGQGARVTVSSGGCGGGKVAALKEKVAALKEKVAALKEKVAALKE	0.006	0.49
anti-CD3 × anti-HIV gp120 bispecific diabody (anti-HIV gp120 antibody A32 and humanized anti-CD3 Antibody 2 binding domains) (bispecific antibody) chain 1: QSALTQPPSASGSPGQSVTISCTGTSSDVGGYNYVSWYQHHPGKAPKLIISEVNNRPSGVPDRFSGSKSGNTASLTVSGLQAEDEAEYYCSSYTDIHNFVFGGGTKLTVLGGGSGGGGEVQLVESGGGLVQPGGSLRLSCAASGFTFSTYAMNWVRQAPGKGLEWVGRIRSKYNNYATYYADSVKGRFTISRDDSKNSLYLQMNSLKTEDTAVYYCVRHGNFGNSYVSWFAYWGQGTLVTVSSGGCGGGEVAALEKEVAALEKEVAALEKEVAALEK chain 2: QAVVTQEPSLTVSPGGTVTLTCRSSTGAVTTSNYANWVQQKPGQAPRGLIGGTNKRAPWTPARFSGSLLGGKAALTITGAQAEDEADYYCALWYSNLWVFGGGTKLTVLGGGGSGGGGQVQLQESGPGLVKPSQTLSLSCTVSGGSSSSGAHYWSWIRQYPGKGLEWIGYIHYSGNTYYNPSLKSRITISQHTSENQFSLKLNSVTVADTAVYYCARGTRLRTLRNAFDIWGQGTLVTVSSGGCGGGKVAALKEKVAALKEKVAALKEKVAALKE	0.024	0.75
